Source: the supplement of paper PMC9170038

Test system: MS2 coat protein
Test: apparent KD of MS2 coat protein; designed switch direction (-1 OFF switch, 1 ON switch): -1; higher = weaker reporter binding
Summary of the method: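 Designed RNA switches were transcribed on Illumina chips by stalled E. coli RNA polymerase and titrated with SNAP-549-labelled MS2 coat protein from 0.7 or 1.5 nM, doubling to 3 µM. Step length ran from 0.8–1.5 h at the lowest concentration to 10–20 min at the highest. The apparent KD is the median over clusters for each design, from curve-fitted normalised cluster fluorescence.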

[1] = input ligand: microRNA oligo, concentration not stated
[2] = Eterna round: R95, input ligand: FMN 200 uM
[3] = Eterna round: R95, input ligand: microRNA oligo, concentration not stated
[4] = Eterna round: R95, input ligand: none

Sequence	apparent KD of MS2 coat protein (input ligand: FMN 200 uM)	apparent KD of MS2 coat protein [1]	apparent KD of MS2 coat protein (input ligand: none)	apparent KD of MS2 coat protein [2]	apparent KD of MS2 coat protein [3]	apparent KD of MS2 coat protein [4]
UUCAGGAGUCGAGGAUAUUUGCAGACGACAUGAGGAUCACCCAUGUGGUUAGCAUAGUCUUCAGCAGAGAAGGCGACCAACGAG [Eternabot solution 20] (Eterna round: R96, puzzle: Exclusion NG 2)	171 nM	40 nM	40.3 nM			
GGUUGACAUGAGGAUCACCCAUGUGAGGAUAUGCGAGAGAAAAAAGUGAGGAAGUAAAGCAGAAGGCGCUGUCG [salish99-ex1_r3_004] (puzzle: Exclusion 1)				51.6 nM	200 nM	449 nM
GUACUGAGGCUUUGCUUUAAUCGUACAUGAGGAUCACCCAUGUAGGAUAUGGUAGGCUUUGCUUACCAGAAGGACAGAGUGAUC [JL EXNG3 1.23] (Eterna round: R96, puzzle: Exclusion NG 3)	148 nM	121 nM	162 nM			
AGCUGUGGCCGAGGAUAUUGCGAACCAUGGAAAACCAUGGAAACUCUACAUGAGGAUCACCCAUGUAAGAAGGCGGUCUCAGCA [Eli eng2 - 025] (Eterna round: R96, puzzle: Exclusion NG 2)	18.7 nM	10.7 nM	15.8 nM			
UGCUACGGAGGAUAUACAUGAGGAUCACCCAUGUGAGAGAUUUAGCCGAGAGGCUAGUGUAGAAGGCCGUAGCU [jl-ex3-4.17 jl mod] (Eterna round: R97, puzzle: Exclusion 3)	400 nM		62.8 nM			
UAUAUAUAGUAAGGAUAUGUAUUUAUUUUAGAAACAGAAGGUACUGACAUGAGGAUCACCCAUGUUUUAGUGUGGGCAUGUAGA [JMF's solution 23] (Eterna round: R96, puzzle: Exclusion NG 1)		62 nM				
AUGCCCUGAGGAUAUCUCAUCCCGCACAUGAGGAUCACCCAUGUUCUUCUCUGGGUUUCGAGAGAAGGCAGGCCUA [Armus3] (Eterna round: R97, puzzle: Exclusion 5)	53.6 nM		118 nM			
UUUGCAAGCUAAAGAUCCCACAUGAGGAUCACCCAUGUUGCUGCCGUGAGGUAGCUUUUAACUUUUGCUCGUCUUAU [JL TOV1 3.44] (Eterna round: R97, puzzle: Sensor, turn-off variant 1)	183 nM		217 nM			
GGUCAAGAACAGAACCGCGCUGCCCUUGACCGCUCAUUUACAUGAGGAUCACCCAUGUUUUUUGCUUGUCUUGUUAC [Qugeon] (puzzle: Sensor v3, turn-off variant 2)				16.2 nM	89.6 nM	17.3 nM
GCACGAAGUGUAGGAUAUCUGUGCGAUUAGCUCAGAGAAGGACACAUGAGGAUCACCCAUGUGUUUCACGGAAACGAAACGUGC [Eli exng1 - 054] (Eterna round: R96, puzzle: Exclusion NG 1)	10.7 nM	9.54 nM	16.2 nM			
GCGAUUUCCGAGGAUAUCCUGCACACUAUCUAAGGAGAAGGCGGAACUUGAGGAUCACCCAAGUGCAUCCGAAU [Isusbe] (Eterna round: R97, puzzle: Exclusion 6)	135 nM		39.5 nM			
GUUACACAUGAGGAUCACCCAUGUAAGGAUAUGCUGCGGUCGCGCUGACGUGACUGCAGCAGAAGGUACACAUG (puzzle: Exclusion 1)					86.8 nM	
GGUGAAGCAGGAUAUGUACCAAUAUACAUGAGGAUCACCCAUGUCAUGUAGGAACUGCGUAUAGAAGGGCUUCACC [Exclusion 5 (FMN-MS2 slide v.7)] (Eterna round: R97, puzzle: Exclusion 5)	123 nM		55 nM			
UACAUGAGGAUCACCCAUGUUUUGUCGUGUAUGGUAUUUAUCUAGGAUAUCAAUUUAGUAAUUUAUGAGAAGGAGAAUAUUAAU [JMF's solution 73] (Eterna round: R96, puzzle: Exclusion NG 3)	37.5 nM	31.4 nM	40.8 nM			
GGUCGUAGACAGGAUAUGCGGCAAAUAAAUAAAGCAGAAGGGUCUACUUGAGGAUCACCCAAGUGGGCGGUUAA [jl-ex6-4.18 ViennaUCT mod] (Eterna round: R97, puzzle: Exclusion 6)	103 nM		17.7 nM			
AAUAACAAGCAGAUCCUAAACAUGAGGAUCACCCAUGUGCUCGUCUUGUUGUACUAUCACUCGAAAGUGAUAGUACA (Eterna round: R97, puzzle: Sensor, turn-off variant 1)	90.1 nM		104 nM			
UUUAAAACAUAGGAUAUCGAAUUAAUCAUUUAACGAGAAGGAUGAACAUGAGGAUCACCCAUGUGGUAUCAUGG [Mat - Exclusion 6 - JL Mod - D19] (puzzle: Exclusion 6)				282 nM	274 nM	270 nM

Sequence	apparent KD of MS2 coat protein (input ligand: FMN 200 uM)	apparent KD of MS2 coat protein [1]	apparent KD of MS2 coat protein (input ligand: none)	apparent KD of MS2 coat protein [2]	apparent KD of MS2 coat protein [3]	apparent KD of MS2 coat protein [4]
UCAAGUUUUUUGUUUUUUAACAUGAGGAUCACCCAUGUAUUUUUAUAGUAUGUGUGAAUAAGAUCUCUUUGUCUUAU [JR_SV3TOV1_Sub098] (puzzle: Sensor v3, turn-off variant 1)				46.6 nM	149 nM	49.5 nM
UUAUUAUAUGAAGGAUAUACUUAACAUGAGGAUCACCCAUGUGGUGUUGUGAGUGAGUGAGUUUAGUAGAAGGUCAAUUCUUUU [JMF's solution 93] (Eterna round: R96, puzzle: Exclusion NG 2)		418 nM				
AAUUAACUAGGAUAUACUUGAGGAUCACCCAAGUGGGCUCCACCUGCUUGGCUCCCAGGUAGAAGGAGUAUACA [Tioner] (Eterna round: R97, puzzle: Exclusion 3)	213 nM		538 nM			
CCAUGAUAAGGAUAUUGAAGGUUCGACAUGAGGAUCACCCAUGUUAUGUUGGAAAAGGGACAAGAAGGUAUUAAUU [salish99_ex5_r4_221] (Eterna round: R97, puzzle: Exclusion 5)	48.2 nM		45.8 nM			
CUUUUGUGAGGAUAUUAGUAGUAAAUAAUUAAAAUUAUUACUGAGAAGGCACAUGAGGAUCACCCAUGUUCCUC [Salish 062 v15] (Eterna round: R97, puzzle: Exclusion 4)	752 nM		42.9 nM			
UUGCAGUCGUCAGGAUAUAGUAUUACGGCCAUUUUUUUUUUCAUACAUGAGGAUCACCCAUGUCGCUAGAAGGGAUUAUCGAUU [salish99_ExNG2_r04_103] (Eterna round: R96, puzzle: Exclusion NG 2)	71 nM	57.1 nM	67 nM			
AGUACUUACUCGAUAGUGUUAGUACAAUAAGCUUGUGAAACAUGAGGAUCACCCAUGUCCUCAUAAGCUCGUCUUAU [salish99_TOv2_r3_1005] (puzzle: Sensor v3, turn-off variant 2)				17.6 nM	627 nM	15.8 nM
CGCCUGUGAGGAUAUUAGUAGUAGUCAGAAAAGACUAUUACUGAGAAGGUACAUGAGGAUCACCCAUGUUGGCG [Mat - Exclusion 4 - Eli Mod - D41] (Eterna round: R97, puzzle: Exclusion 4)	14.8 nM		20 nM			
GCGCUGCGAGGAUAUACAUGAGGAUCACCCAUGUGUCGGCAGCCAUGUUAGUACAAAUGUAGAAGGCGCGUAAA [EX3 #61] (Eterna round: R97, puzzle: Exclusion 3)	20.8 nM		18.3 nM			
AAAUACAAGCAAAGAUCCUACAUGAGGAUCACCCAUGUGCUCGUCUUGUAAAGUACUAUCACGAAAGUGAUAGUACA [Sensor 3, v1 - 16] (puzzle: Sensor v3, turn-off variant 1)				51.9 nM	27.5 nM	70.2 nM
AACUCACGUUCAGGAUAUCGCGUUCCAAAGACAUGAGAAGGGAACAUGAGGAUCACCCAUGUGCCCGGUCUCAGACCGGGCUUC [Cetein] (Eterna round: R96, puzzle: Exclusion NG 1)	328 nM	76 nM	88.8 nM			
UAUGUGUCAGGAUAUUAGUAGUAAAUGAAUAAAAUUAUUACUGAGAAGGGACAUGAGGAUCACCCAUGUGCCUC [Mat - Exclusion 4 - Eli Mod - D27] (Eterna round: R97, puzzle: Exclusion 4)	345 nM		35.2 nM			
AGCGAUCAUGUUAGGAUAUCCAAGCAGACGCUCAAGGAGAAGGAACAUGAGGAUCACCCAUGUUUGAUCCAAAC [Usrediza] (Eterna round: R97, puzzle: Brourd's mod of Exclusion 4)	104 nM		19.7 nM			
GAAAAGAAAGGAUAUACAGGGAAAUGAACCGCACGUAAACCACAUGAGGAUCACCCAUGUAGAAGGUUCAGUGC [Edenusra] (puzzle: Exclusion 2)					10.6 nM	
AGGGAUAAAGGAUAUACAUGAGGAUCACCCAUGUUGAGGAAAGUUAGAUGAGGAGGAAGUAGAAGGUUAGACGA [JR_Exclu3_Sub087] (puzzle: Exclusion 3)				24.3 nM	35.4 nM	42.5 nM
GGUUGGCGAGGAUAUACAUGAGGAUCACCCAUGUGAGAGAAAAAACUGAGGAAGAAAAGUAGAAGGCGCUGACG [salish99_ex3_r3_026] (puzzle: Exclusion 3)				117 nM	23.4 nM	35.5 nM
AUAAUUAGUUCAGGAUAUCAGCACGAUUAGUGCUGAGAAGGGAACAUGAGGAUCACCCAUGUGAUCAAUAUUAUAAUUUUAAUU [ENG1/12-B1] (Eterna round: R96, puzzle: Exclusion NG 1)	281 nM	540 nM	1150 nM			
